Patent US20160251386A1 (published 2016)

Molecular target: the molecule itself
Test: SDS gel and Western blot, self-association (dimer band)

B1: secreted form of the factor with tags (94 AA+tags) expressed in E. coli (other)
chain: MEPLAVVDLRPQSSVKVEVHFQDKVEEMSIRLDQTVAELKKHLKTVVQLSTSNMLLFYLDQEAPFGPEEMKYSSRALHSYGIRDGDKIYVEPRMKDDDDKKGEFEAYVEQKLISEEDLNSAVDHHHHHH
notes: Expressed from pTrcHis2-TOPO in E. coli, purified on nickel columns; carries no lipid cofactor; runs at 16 kD with a 32 kD dimer band; also called free factor made in E. coli; E. coli expressed secreted form of the factor
Does B1 bind?
Result: binds
